Measurements from patent US12466853B2, “Selective targeting of apoptosis proteins by structurally-stabilized and/or cysteine-reactive NOXA peptides” (priority 2017, dated 2025).
Numbering of substitutions follows the chain as printed. Entries after “also recorded” stand apart in the source; their conditions may differ. Positions of bridges follow the written chain, without caps; N, C: chain ends. Non-standard residues stand in square brackets, D forms with d. No end group written: not given here. R8 = C=CCCCCCC[C@@](C)(N)C(=O)O; S5 = C=CCCC[C@](C)(N)C(=O)O

Columns and labels:
His-BFL-1ΔC C4S/C19S = target: T1, His-BFL-1ΔC C4S/C19S (Homo sapiens, UniProt Q16548, C19S/C4S); assay: In vitro covalent conjugation assay (gel shift, Coomassie; intact mass spectrometry); format: binding
T1 construct: Recombinant anti-apoptotic BFL-1ΔC (aa 1-151) and its cysteine to serine mutants were cloned into PET17b; made in house; host or cells: Escherichia coli LOBSTR BL21(DE3)
T1 sequence (Q16548 1-151 C4S/C19S): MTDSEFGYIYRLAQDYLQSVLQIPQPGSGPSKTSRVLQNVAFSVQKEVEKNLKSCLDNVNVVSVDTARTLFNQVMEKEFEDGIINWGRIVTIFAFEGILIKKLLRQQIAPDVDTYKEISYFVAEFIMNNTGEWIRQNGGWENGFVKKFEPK
Description: To generate constructs with particular binding selectivities, cell penetrance properties, in vivo stability, and biological activity to enable the development of a drug for clinical use, staple scanning methodology was first used to generate a library of cysteine-reactive NOXA SAHBs to optimize binding potency, selectivity, and cellular penetrance. […] Staple scanning was achieved by sequential placement of (i, i+4) and (i, i+7) staples across the length of the peptide template, while keeping the N-terminal D-nipecotic acid (D-NA) reactive group constant (FIG. 2). We measured the reactivity of this NOXA library by incubating each peptide with BFL-1ΔC and detecting a higher molecular weight conjugate upon reducing and denaturing gel electrophoresis, and Coomassie staining (FIG. 3). Those peptides capable of covalent reaction with BFL-1 were advanced to cellular testing for peptide uptake. 293T cells transfected with HA-BFL-1ΔC C4S/C19S were treated with peptide (20 μM, 6 hr), and then harvested and lysates analyzed by anti-HA western blotting (FIG. 4). […] However, upon LDH release testing in A375P cells, this peptide was unexpectedly found to cause membrane disruption (FIG. 5). […]

A375P cells = assay: LDH release assay, A375P cells; format: cell-based, human; settings: 30 min
Method: After overnight incubation for A375P cells, or immediately upon plating for U937 cells, the cells were treated with the indicated concentrations of D-NA-NOXA SAHBs in DMEM or RPMI supplemented with 5% FBS for the indicated time period (30 min, 4 h). After plate centrifugation at 1,500 rpm (Thermo Scientific Sorvall Four-Place Swinging Bucket Rotor [75006445]; 478×g) for 5 min at 4° C., LDH release was quantified by transferring 100 μL of cell-culture medium to a clear plate (Corning), incubating with 100 μL of LDH reagent (Roche) for 30 min while shaking, and then measuring absorbance at 490 nm on a microplate reader (Spectramax M5, Molecular Devices).

His-BFL-1ΔC = target: T2, His-BFL-1ΔC (Homo sapiens, UniProt Q16548); assay: Streptavidin pulldown from recombinant protein mixture, BFL-1; format: binding; settings: equimolar mixture of recombinant MCL-1, BCL-XL, BFL-1 and biotinylated SAHB, silver stain; listed as D-NA-NOXA SAHB
T2 construct: Recombinant anti-apoptotic BFL-1ΔC (aa 1-151) and its cysteine to serine mutants were cloned into PET17b; made in house; host or cells: Escherichia coli LOBSTR BL21(DE3)
T2 sequence (Q16548 1-151): T1 sequence (Q16548 1-151 C4S/C19S) with S4C, S19C
Method: (§1) WT His-BFL-1ΔC, BCL-XLΔC (tagless), and GST-MCL-1ΔNΔC (1 μM each) were combined and incubated with 3 mM DTT in PBS for thirty minutes at room temperature. Mixtures were treated with vehicle or the indicated C-terminally biotinylated NOXA SAHB (1 μM) for four hours and were then added to 30 μL PBS-washed high-capacity streptavidin (SA) agarose beads (Thermo Fisher Pierce) and incubated with rotation at room temperature for two hours. The beads were then washed three times with NP-40 lysis buffer (1% NP-40, 50 mM Tris pH 8, 100 mM NaCl, 2.5 mM MgCl2) and three times with PBS. To elute bound protein, beads were boiled for ten minutes with 10% SDS containing 10 mg/mL biotin. After elution, samples were boiled with 3×LDS and 2M DTT for twenty minutes. Gel electrophoresis using a 12% Bis-Tris gel was conducted on inputs (2%) and eluates (5 μL) and gels were developed using the Pierce silver staining kit (Thermo Fisher).

GST-MCL-1ΔNΔC = target: T3, GST-MCL-1ΔNΔC (Homo sapiens, UniProt Q07820); assay: Streptavidin pulldown from recombinant protein mixture, MCL-1; format: binding; settings: equimolar mixture of recombinant MCL-1, BCL-XL, BFL-1 and biotinylated SAHB, silver stain
T3 construct: BCL-XLΔC (aa 1-212) and MCL-1ΔNΔC (aa 172-329) were cloned into the PGEX-4T-1; made in house; host or cells: Escherichia coli BL21(DE3)
Method: as §1

native BFL-1 = target: T4, native BFL-1 (Homo sapiens, UniProt Q16548); assay: BFL-1 targeting in A375P lysates (streptavidin pulldown, BFL-1 western); format: binding; settings: biotinylated SAHB, compared to acetylated construct
T4 construct: endogenous in cells; host or cells: A375P melanoma cells (A10); U937 AML cells (A12), lysates
T4 sequence (Q16548 1-175): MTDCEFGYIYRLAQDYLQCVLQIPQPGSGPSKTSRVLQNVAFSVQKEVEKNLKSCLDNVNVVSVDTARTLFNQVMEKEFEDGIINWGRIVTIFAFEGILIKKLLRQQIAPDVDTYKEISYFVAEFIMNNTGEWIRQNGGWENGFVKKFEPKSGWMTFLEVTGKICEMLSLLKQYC
Method: Cultured A375P and U937 cells were trypsinized or harvested, respectively, washed with PBS, and lysed by incubating with 1% CHAPS lysis buffer (1% CHAPS, 150 mM NaCl, 50 mM Tris pH 7.4, 100 μM DTT). The protein concentrations of the soluble fraction were measured using a BCA kit according to the manufacturer's instructions (Thermo Scientific). Lysate samples (1 mg) were incubated with vehicle or C-terminally biotinylated NOXA SAHBs (30 μM) overnight in 1% CHAPS lysis buffer at 4° C. Biotin capture was accomplished by incubating the mixture with high-capacity SA agarose (Thermo Scientific) for 2 hours at 4° C., followed by centrifugation and washing the pelleted beads three times with lysis buffer (1 mL). Bead-bound proteins were eluted by boiling in 10% SDS containing 10 mg/mL biotin for 10 minutes and then subjected to electrophoresis and western blotting using BFL-1 (Abcam, #125259) and MCL-1 (Rockland #600-401-394S) antibodies.

T3 sequence (Q07820 172-329, stated change not applied): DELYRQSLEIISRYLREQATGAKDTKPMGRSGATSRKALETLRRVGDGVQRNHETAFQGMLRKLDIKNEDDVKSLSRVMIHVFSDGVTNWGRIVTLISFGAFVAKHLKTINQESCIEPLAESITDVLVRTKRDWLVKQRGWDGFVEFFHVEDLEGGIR

*AT8LRRFGDXLNFRQ (AT[R8]LRRFGD[S5]LNFRQ; staple 3-10 (inferred); not fully specified (N-terminus); printed as *AT8LRRFGDXLNFRQ; also: N-terminal cap * is Ac or D-nipecotic acid, not settled) [NOXA-15]
BFL-1 crosslinking (increase in molecular weight) (His-BFL-1ΔC C4S/C19S; BFL-1 constructs bearing C55 (wild-type and C4S/C19S) vs C55S, C4S/C19S/C55S): discrete increase in molecular weight | conversion of BFL-1 C4S/C19S to peptide adduct (His-BFL-1ΔC C4S/C19S; intact mass spectrometry): complete conversion | LDH release (lytic activity) (A375P cells): non-specific cell lysis | BFL-1 binding / pull down (His-BFL-1ΔC): robust BFL-1 pull down; also recorded: substantial pull-down of BFL-1 | MCL-1 binding / pull down (GST-MCL-1ΔNΔC): similarly small amount of MCL-1 | targeting of native BFL-1 (native BFL-1): markedly enhanced BFL-1 pull down compared to Ac-NOXA SAHB
